Bridge positions count the residues as written; N and C are the ends. Ends that are not written are not given here. COCH2 = acetyl group that carries the bridge
B1: cyclic peptide SEQ ID NO: 34 (peptide)
peptide: CRALLRGAPFHLAEC
modifications: disulfide 1-15
notes: also called cyclic peptide reported in WO2000/003245A
B2: cyclic peptide SEQ ID NO: 39 (peptide)
peptide: QCENWLSQDQWKYFWQYK(COCH2)I
modifications: thioether 2-18; not fully specified; printed as Q-(C)-ENWLSQDQWKYFWQY-(K(acetyl))-I
B3: cyclic peptide SEQ ID NO: 38 (peptide)
peptide: QCSYLYQYVFERYKVTVPK(COCH2)D
modifications: thioether 2-19; not fully specified; printed as Q-(C)-SYLYQYVFERYKVTVP-(K(acetyl))-D
B4: cyclic peptide SEQ ID NO: 40 (peptide)
peptide: DCSGNFFSKEQFHYLELFK(COCH2)K
modifications: thioether 2-19; not fully specified; printed as D-(C)-SGNFFSKEQFHYLELF-(K(acetyl))-K

Columns and labels:
[1] = target: T1, Recombinant Human FGFR2 alpha (IIIc) Fc Chimera Protein (Homo sapiens, UniProt P21802); assay: ELISA binding affinity of enzymatically synthesized peptide to FGFR; conditions: ELISA luminescence signal at 10 nmol/L peptide, SEQ ID NO: 47 at 10 nmol/L standardized to 1; enzyme synthesis product
T1 construct: Fc (chimera); purchased R&D systems 712-FR-050
Method: The binding affinity of the peptide to FGFR was evaluated using an ELISA method.
The binding affinity of the enzymatically synthesized peptide to FGFR was measured by evaluating the amount of the peptide bound to FGFR by ELISA.
First, 5 ng of Recombinant Human FGFR2 alpha (IIIc) Fc Chimera Protein (R&D systems, 712-FR-050) was immobilized in each well of a 96-well plate, and blocked with Pierce Protein-Free (PBS) Blocking Buffer (Thermo, 37572), and a peptide diluted with Can Get Signal Immunoreaction Enhancer Solution I (TOYOBO, NKB-101) was then added and reacted at room temperature for 3 hours. After washing with 0.05% Tween 20-containing phosphate buffered saline (PBS), an anti-Myc antibody (Cell Signaling, 14038S) diluted with Can Get Signal Immunoreaction Enhancer Solution II (TOYOBO, NKB-101) was added and reacted at room temperature for 2 hours. After washing with 0.05% Tween 20-containing PBS, SuperSignal ELISA Femto Substrate (Thermo, 37075) was added, and the luminescence amount was measured. The dose-response relationship was calculated from using the difference between the luminescence amount in the well in which FGFR was immobilized and the luminescence amount in the well in which FGFR was not immobilized, and the concentration of the peptide at the time of reaction, and the binding affinity to FGFR was evaluated according to the following evaluation criteria. The evaluation result preferably satisfies the evaluation criteria A, B, or C.
In a case where a value of a luminescence signal emitted by the cyclic peptide set forth in SEQ ID NO: 47 at a reaction concentration of 10 nmol/L is standardized to 1, evaluation criteria of the luminescence signal value emitted by the cyclic peptide at a reaction concentration of 10 nmol/L is as follows. • A: 0.7 or more • B: 0.5 or more and less than 0.7 • C: 0.1 or more and less than 0.5 • D: less than 0.1.

[2] = target: T2, Recombinant Human FGFR2 alpha (IIIc) Fc Chimera Protein, CF (R&D systems, 712-FR-050) (human, UniProt P21802 22-377); assay: ELISA on plate-bound FGFR2-Fc
T2 construct: bought; not shown: Fc part of the chimera
How it was run: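 Peptide binding scored by category from dose-response of background-corrected luminescence (FGFR-coated minus uncoated wells). Detection via anti-Myc antibody (2 h, room temperature) after 3 h peptide incubation on wells coated with 5 ng FGFR2 alpha (IIIc)-Fc.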

T2 sequence (P21802 22-377, change not shown): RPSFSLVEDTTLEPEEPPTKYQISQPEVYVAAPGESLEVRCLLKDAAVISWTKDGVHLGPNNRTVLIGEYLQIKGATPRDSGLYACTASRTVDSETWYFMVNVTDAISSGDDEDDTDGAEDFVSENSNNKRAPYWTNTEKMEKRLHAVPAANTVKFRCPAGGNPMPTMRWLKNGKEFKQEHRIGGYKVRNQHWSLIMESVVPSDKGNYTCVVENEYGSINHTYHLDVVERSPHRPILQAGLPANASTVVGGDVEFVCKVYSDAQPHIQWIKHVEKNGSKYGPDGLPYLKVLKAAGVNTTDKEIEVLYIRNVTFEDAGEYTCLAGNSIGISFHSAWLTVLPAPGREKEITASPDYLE
T1 sequence (P21802 with tags, fused parts or gaps limits assumed): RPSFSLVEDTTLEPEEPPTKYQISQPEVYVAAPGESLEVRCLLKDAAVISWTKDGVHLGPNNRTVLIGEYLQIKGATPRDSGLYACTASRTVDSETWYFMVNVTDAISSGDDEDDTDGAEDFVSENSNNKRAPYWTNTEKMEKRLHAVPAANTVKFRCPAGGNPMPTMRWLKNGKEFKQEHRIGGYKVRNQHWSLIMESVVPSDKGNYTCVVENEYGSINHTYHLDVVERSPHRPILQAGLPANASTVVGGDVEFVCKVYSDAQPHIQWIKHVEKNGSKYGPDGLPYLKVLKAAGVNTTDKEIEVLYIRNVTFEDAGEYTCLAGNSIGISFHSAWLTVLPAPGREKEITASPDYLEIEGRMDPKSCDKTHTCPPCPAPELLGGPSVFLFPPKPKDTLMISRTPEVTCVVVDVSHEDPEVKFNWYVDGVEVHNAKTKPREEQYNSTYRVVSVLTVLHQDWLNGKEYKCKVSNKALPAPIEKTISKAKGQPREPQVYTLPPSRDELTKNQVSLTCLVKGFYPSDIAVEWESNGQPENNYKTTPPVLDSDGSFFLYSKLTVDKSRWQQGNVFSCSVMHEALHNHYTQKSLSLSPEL

| Molecule | Evaluation result of binding affinity to FGFR [1] | ELISA luminescence signal at 10 nmol/L peptide, relative to SEQ ID NO: 47 (=1) [2] [ratio] |
| --- | --- | --- |
| 34 (CRALLRGAPFHLAEC; disulfide 1-15) [compound 34] | D (less than 0.1) |  |
| 35 (YRSRKYSSWYVALKR; also: cyclic peptide, ring not given here) [compound 35] | D (less than 0.1) |  |
| YCHENYLDPEQYQYFHYFK(COCH2) (thioether 2-19 (inferred)) [cyclic peptide SEQ ID NO: 429] |  | 0.1 to 0.5 |
| DCYWDDQQYSFLQLYK(COCH2)R (thioether 2-16) [cyclic peptide SEQ ID NO: 121] |  | ≥ 0.7 |
| HCQPEYELYYIYLYLNALK(COCH2)I (thioether 2-19) [cyclic peptide SEQ ID NO: 112] |  | 0.1 to 0.5 |
| QCYQNWYLYQYLVERYYK(COCH2)D (thioether 2-18) [cyclic peptide SEQ ID NO: 116] |  | 0.1 to 0.5 |
| CHENYLDPEQYQYFHYFK(COCH2) (thioether 1-18 (inferred)) [cyclic peptide SEQ ID NO: 431] |  | 0.1 to 0.5 |
| LCRNYINPQQWRYFALYK(COCH2)Y (thioether 2-18) [cyclic peptide SEQ ID NO: 108] |  | ≥ 0.7 |
| LCRNYINPQQWRYFALYK(COCH2)N (thioether 2-18) [cyclic peptide SEQ ID NO: 117] |  | ≥ 0.7 |
| QCQTDHQQQLYFIYQYLQK(COCH2)I (thioether 2-19) [cyclic peptide SEQ ID NO: 110] |  | 0.1 to 0.5 |
| NCPNYWSQIQWHYFQAYK(COCH2)Q (thioether 2-18) [cyclic peptide SEQ ID NO: 115] |  | ≥ 0.7 |
| B1 |  | < 0.1 |
| CRALLRGAPFHLAEK(COCH2) (thioether 1-15) [cyclic peptide SEQ ID NO: 36] |  | < 0.1 |
| PCVQNYFNDLQWIFLQHYK(COCH2)R (thioether 2-19) [cyclic peptide SEQ ID NO: 128] |  | ≥ 0.7 |
| YCTDNYIDDIQFWYLFLYK(COCH2)Q (thioether 2-19) [cyclic peptide SEQ ID NO: 107] |  | 0.5 to 0.7 |
| YCTDNYIDDIQFWYLFLYK(COCH2)H (thioether 2-19) [cyclic peptide SEQ ID NO: 114] |  | ≥ 0.7 |
| CENYLDPEQYQYFHYFK(COCH2)Y (thioether 1-17 (inferred)) [cyclic peptide SEQ ID NO: 432] |  | 0.1 to 0.5 |
| B2 |  | ≥ 0.7 |
| HCDGNWWNSQQFFYLLLYK(COCH2)H (thioether 2-19) [cyclic peptide SEQ ID NO: 130] |  | ≥ 0.7 |
| RCINYWSGQQFYFFQQYK(COCH2)F (thioether 2-18) [cyclic peptide SEQ ID NO: 113] |  | 0.1 to 0.5 |

| Molecule | Evaluation result of binding affinity to FGFR [1] | ELISA luminescence signal at 10 nmol/L peptide, relative to SEQ ID NO: 47 (=1) [2] [ratio] |
| --- | --- | --- |
| QCDQEFYLALYAWTLRSYK(COCH2)L (thioether 2-19) [cyclic peptide SEQ ID NO: 111] |  | 0.1 to 0.5 |
| YCRDNYFYLEQWQYLYLYK(COCH2)H (thioether 2-19) [cyclic peptide SEQ ID NO: 125] |  | ≥ 0.7 |
| LCGNYITPLQWKYFQTYK(COCH2)W (thioether 2-18) [cyclic peptide SEQ ID NO: 41] |  | ≥ 0.7 |
| B3 |  | ≥ 0.7 |
| LCPVPQQTDYLRWYQIIHK(COCH2)Q (thioether 2-19) [cyclic peptide SEQ ID NO: 118] |  | 0.1 to 0.5 |
| ECPWNFVNQLQWQYFITYK(COCH2)V (thioether 2-19) [cyclic peptide SEQ ID NO: 129] |  | ≥ 0.7 |
| YCPYNFYNIIQFHYFLTYK(COCH2)T (thioether 2-19) [cyclic peptide SEQ ID NO: 127] |  | ≥ 0.7 |
| LCEINWLSQEQYGYFIEYK(COCH2)T (thioether 2-19) [cyclic peptide SEQ ID NO: 126] |  | ≥ 0.7 |
| CHENYLDPEQYQYFHYFK(COCH2)Y (thioether 1-18 (inferred)) [cyclic peptide SEQ ID NO: 430] |  | ≥ 0.7 |
| QCWYIQQYIWERYFLWHNK(COCH2)E (thioether 2-19) [cyclic peptide SEQ ID NO: 120] |  | 0.1 to 0.5 |
| DCRDLQLFYIYQYLDALKK (not fully specified; thioether ring (C)-(K(acetyl))) [cyclic peptide SEQ ID NO: 124] |  | 0.1 to 0.5 |
| QCRYFWQYVLERYRVRLPK(COCH2)E (thioether 2-19) [cyclic peptide SEQ ID NO: 119] |  | ≥ 0.7 |
| ECQENFVDRQQYWYFLSYK(COCH2)F (thioether 2-19) [cyclic peptide SEQ ID NO: 132] |  | ≥ 0.7 |
| B4 |  | ≥ 0.7 |
| QCQNFITEVQFTYFWHYK(COCH2)T (thioether 2-18) [cyclic peptide SEQ ID NO: 123] |  | ≥ 0.7 |
| QCYFLSQYILERYKVHK(COCH2)L (thioether 2-17) [cyclic peptide SEQ ID NO: 42] |  | ≥ 0.7 |
| QCENWVNSTQFEFFWQYK(COCH2)T (thioether 2-18) [cyclic peptide SEQ ID NO: 122] |  | 0.5 to 0.7 |
| DCFINELQYFYIQQYKK (not fully specified; thioether ring (C)-(K(acetyl))) [cyclic peptide SEQ ID NO: 109] |  | 0.5 to 0.7 |
| YRSRKYSSWYVALKR (not fully specified) [linear peptide SEQ ID NO: 35] |  | < 0.1 |
| QCQLNYWDDLQFTYYLQYK(COCH2)V (thioether 2-19) [cyclic peptide SEQ ID NO: 37] |  | ≥ 0.7 |

Source: patent US20260008815A1, “CYCLIC PEPTIDE OR SALT THEREOF, AND USES THEREOF” (FUJIFILM Corporation, priority 2023, published 2026)
